Laboratory results reported in paper PMC3317646, “Interaction of Chandipura Virus N and P Proteins: Identification of Two Mutually Exclusive Domains of N Involved in Interaction with P” (PLoS ONE, 2012).
Read-outs that look alike come from different tables or passages of the source.

T1: N-terminal six histidine tagged P protein of Chandipura virus (His-P) (Chandipura virus, UniProt P16380 1-293)
T1 construct: Chandipura virus phosphoprotein P, full length (pET20b-P); pET20b usually adds a C-terminal His tag (surmise); also called 6×His-P; pET20b-P; source: bacterially expressed, purified (Ni-NTA agarose); not shown: His6, N-terminal, kept
T1 sequence: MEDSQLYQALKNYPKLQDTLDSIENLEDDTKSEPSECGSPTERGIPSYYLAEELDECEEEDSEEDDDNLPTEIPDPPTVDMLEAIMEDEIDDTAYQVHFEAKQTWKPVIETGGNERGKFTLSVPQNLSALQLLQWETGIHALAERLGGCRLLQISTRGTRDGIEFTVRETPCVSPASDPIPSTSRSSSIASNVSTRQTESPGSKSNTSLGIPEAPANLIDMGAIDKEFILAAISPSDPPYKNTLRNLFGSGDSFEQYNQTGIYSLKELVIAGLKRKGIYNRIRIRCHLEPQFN

B1: Chandipura virus phosphoprotein (P), wild-type, untagged, bacterially expressed (natural protein)
chain: MEDSQLYQALKNYPKLQDTLDSIENLEDDTKSEPSECGSPTERGIPSYYLAEELDECEEEDSEEDDDNLPTEIPDPPTVDMLEAIMEDEIDDTAYQVHFEAKQTWKPVIETGGNERGKFTLSVPQNLSALQLLQWETGIHALAERLGGCRLLQISTRGTRDGIEFTVRETPCVSPASDPIPSTSRSSSIASNVSTRQTESPGSKSNTSLGIPEAPANLIDMGAIDKEFILAAISPSDPPYKNTLRNLFGSGDSFEQYNQTGIYSLKELVIAGLKRKGIYNRIRIRCHLEPQFN
notes: Chandipura virus phosphoprotein P, wild-type (pET3a-P); also called CHPV P; pET3a-P; source: bacterially expressed, purified (Q-Sepharose anion exchange)

Experiments:
[1] = target: B1; experiment: SEC; N (or N(1–320)) pre-treated with 1% DOC for 30 min, then DOC removed by overnight dialysis against 100 mM NaCl TET buffer with or without equimolar P; S-200 (10/300); ratio by densitometry of bands; conditions: both partners purified
[2] = target: the molecule itself; experiment: SEC; each purified protein alone on Superdex-200 / S-200 (10/300), 100 mM NaCl TET buffer; oligomerization status from the elution volume
[3] = target: T1, N-terminal six histidine tagged P …; experiment: pull-down; His-tag co-elution after 1% DOC treatment of the N variants and dialysis against the binding buffer in presence of His-P (N variants monomeric); Ni-NTA agarose, eluted with 250 mM imidazole; conditions: both partners purified
[4] = target: the molecule itself; experiment: SEC; each purified protein alone on Superdex-200 / S-200 (10/300), 100 mM NaCl TET buffer; oligomerization status from the elution volume; remark: listed apart in the source
[5] = target: B1; experiment: SEC; equimolar N (or N(1–320)) and P incubated 30 min at 4°C in 100 mM NaCl TET buffer, no DOC treatment (N oligomeric); S-200 (10/300); ratio by densitometry of bands; conditions: both partners purified

| Binder | stoichiometry N [2] | stoichiometry N [4] | other results |
| --- | --- | --- | --- |
| N(1–320), bacterially expressed (domain or fragment, Chandipura virus nucleocapsid protein N, residues 1-320; also called N(1–320)^0 (monomer after DOC treatment); source: E. coli BL21(DE3) or BL21(DE3)pLysS, purified (anion exchange, MonoQ 5/50 GL)) MSSQVFCISTGQTVSVCLPANEDPVEFPGAFFTPNAKKPTVYIKKETDLSLLRSHVYDGIKDGSVTVSQINSYLYMVLKDIREKPDKNWTSFGVELGKKNEPMGIFDLLNVEDVKGKELDKKGQDTRLPGDDLWLPTLIFGLYRVSRATQVEYKKTLMTNLYAQCKLRTKDAEEIVDETAEFFNAWANDSNFTKIVAAVDMYFHHFKKSDHAPIRFGTIVSRFKDCAALSTLSHLQKVTGLPIEEVFTWVFNKSVQDDLLRMMTPGQEIDQADSYMPYLIDMGLSTKSPYSSTKNPSFHFWGQLTAFLVKSARAKNALVP | 8 | – | stoichiometry N [1]: 1 N(1–320):P |
| N(1–220), bacterially expressed (domain or fragment, Chandipura virus nucleocapsid protein N, residues 1-220; source: E. coli BL21(DE3) or BL21(DE3)pLysS, purified (anion exchange, MonoQ 5/50 GL)) MSSQVFCISTGQTVSVCLPANEDPVEFPGAFFTPNAKKPTVYIKKETDLSLLRSHVYDGIKDGSVTVSQINSYLYMVLKDIREKPDKNWTSFGVELGKKNEPMGIFDLLNVEDVKGKELDKKGQDTRLPGDDLWLPTLIFGLYRVSRATQVEYKKTLMTNLYAQCKLRTKDAEEIVDETAEFFNAWANDSNFTKIVAAVDMYFHHFKKSDHAPIRFGTIV | 4 | – | binding result [3]: binds |
| Chandipura virus nucleocapsid protein (N), wild-type, untagged, bacterially expressed (natural protein, Chandipura virus nucleocapsid protein N, full-length untagged (pET3a-NC); Oligomeric (nucleocapsid-like rings) as purified; monomeric after 1% DOC; also called CHPV N; wild-type N) MSSQVFCISTGQTVSVCLPANEDPVEFPGAFFTPNAKKPTVYIKKETDLSLLRSHVYDGIKDGSVTVSQINSYLYMVLKDIREKPDKNWTSFGVELGKKNEPMGIFDLLNVEDVKGKELDKKGQDTRLPGDDLWLPTLIFGLYRVSRATQVEYKKTLMTNLYAQCKLRTKDAEEIVDETAEFFNAWANDSNFTKIVAAVDMYFHHFKKSDHAPIRFGTIVSRFKDCAALSTLSHLQKVTGLPIEEVFTWVFNKSVQDDLLRMMTPGQEIDQADSYMPYLIDMGLSTKSPYSSTKNPSFHFWGQLTAFLVKSARAKNALVPVDIAYHELTTAALLFAYAIGRSSELEQRFVLNGKKFTKEKDSREDNDTTPPSERNVVVWLAWWEDIKHEITPDMKAFAKRAVERVGDIRVNSVAEYARKLFA | – | ~10 | stoichiometry N [5]: 2 N:P (molar ratio) |
| MSSQVFCISTGQTVSVCLPANEDPVEFPGAFFTPNAKKPTVYIKKET (domain or fragment, Chandipura virus nucleocapsid protein N, residues 1-47; source: E. coli BL21(DE3) or BL21(DE3)pLysS, purified (anion exchange, MonoQ 5/50 GL)) [N(1–47), bacterially expressed] | 3 | – | – |
| N(1–390), bacterially expressed (domain or fragment, Chandipura virus nucleocapsid protein N, residues 1-390; source: E. coli BL21(DE3) or BL21(DE3)pLysS, purified (anion exchange, MonoQ 5/50 GL)) MSSQVFCISTGQTVSVCLPANEDPVEFPGAFFTPNAKKPTVYIKKETDLSLLRSHVYDGIKDGSVTVSQINSYLYMVLKDIREKPDKNWTSFGVELGKKNEPMGIFDLLNVEDVKGKELDKKGQDTRLPGDDLWLPTLIFGLYRVSRATQVEYKKTLMTNLYAQCKLRTKDAEEIVDETAEFFNAWANDSNFTKIVAAVDMYFHHFKKSDHAPIRFGTIVSRFKDCAALSTLSHLQKVTGLPIEEVFTWVFNKSVQDDLLRMMTPGQEIDQADSYMPYLIDMGLSTKSPYSSTKNPSFHFWGQLTAFLVKSARAKNALVPVDIAYHELTTAALLFAYAIGRSSELEQRFVLNGKKFTKEKDSREDNDTTPPSERNVVVWLAWWEDIKHEI | 8 | – | – |
| B1 | – | 2 | – |
| N(22–422), bacterially expressed (domain or fragment, source: E. coli BL21(DE3) or BL21(DE3)pLysS, purified (anion exchange, MonoQ 5/50 GL)) EDPVEFPGAFFTPNAKKPTVYIKKETDLSLLRSHVYDGIKDGSVTVSQINSYLYMVLKDIREKPDKNWTSFGVELGKKNEPMGIFDLLNVEDVKGKELDKKGQDTRLPGDDLWLPTLIFGLYRVSRATQVEYKKTLMTNLYAQCKLRTKDAEEIVDETAEFFNAWANDSNFTKIVAAVDMYFHHFKKSDHAPIRFGTIVSRFKDCAALSTLSHLQKVTGLPIEEVFTWVFNKSVQDDLLRMMTPGQEIDQADSYMPYLIDMGLSTKSPYSSTKNPSFHFWGQLTAFLVKSARAKNALVPVDIAYHELTTAALLFAYAIGRSSELEQRFVLNGKKFTKEKDSREDNDTTPPSERNVVVWLAWWEDIKHEITPDMKAFAKRAVERVGDIRVNSVAEYARKLFA | 8 | – | – |
| N(1/180–265/422), bacterially expressed (domain or fragment, also called middle deletant; source: E. coli BL21(DE3) or BL21(DE3)pLysS, purified (anion exchange, MonoQ 5/50 GL)) MSSQVFCISTGQTVSVCLPANEDPVEFPGAFFTPNAKKPTVYIKKETDLSLLRSHVYDGIKDGSVTVSQINSYLYMVLKDIREKPDKNWTSFGVELGKKNEPMGIFDLLNVEDVKGKELDKKGQDTRLPGDDLWLPTLIFGLYRVSRATQVEYKKTLMTNLYAQCKLRTKDAEEIVDETAPGQEIDQADSYMPYLIDMGLSTKSPYSSTKNPSFHFWGQLTAFLVKSARAKNALVPVDIAYHELTTAALLFAYAIGRSSELEQRFVLNGKKFTKEKDSREDNDTTPPSERNVVVWLAWWEDIKHEITPDMKAFAKRAVERVGDIRVNSVAEYARKLFA | 3 | 2 | – |
